Laboratory results published in article PMC5641120 (Oncotarget, 2017).

Target: human PD-1 (residues 33–150, Cys93 exchanged to serine) (human, UniProt Q15116 33-150, Cys93 exchanged to serine, uniform 15N labelling)
Experiment: NMR titration; 1H-15N HMQC, 300K; AIDA: 15N-labeled PD-1 (0.2 mM) slightly overtitrated with unlabeled PD-L1; for the mutants also NMR-monitored direct titration; PBS pH 7.4 (PD-L1) or 25 mM sodium phosphate, 100 mM NaCl pH 6.4 (PD-1)
Details: both partners purified

human PD-1 (residues 33–150, Cys93 exchanged to serine), sequence (Q15116 other isoform, or with tags, fused parts or gaps Cys93 exchanged to serine | Cys93 exchanged to serine): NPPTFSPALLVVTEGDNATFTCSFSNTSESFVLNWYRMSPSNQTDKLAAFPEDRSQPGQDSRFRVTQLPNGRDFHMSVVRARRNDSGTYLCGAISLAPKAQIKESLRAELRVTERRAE

binding result: binds
B1: human PD-L1 (residues 18–134, C-terminal His-tag) (domain or fragment)
chain: AFTVTVPKDLYVVEYGSNMTIECKFPVEKQLDLAALIVYWEMEDKNIIQFVHGEEDLKVQHSSYRQRARLLKDQLSLGNAALQITDVKLQDAGVYRCMISYGGADYKRITVKVNAPY
modifications: NTA-Atto 647 N fluorescent dye on the His-tag (flow cytometry only); uniform 15N labelling (NMR titration with compounds only)
notes: PD-L1, human, residues 18-134 (Ig-like V-type domain); also called sPD-L1; soluble PD-L1; source: expressed and purified as described previously [26]; 15N labelling in M9 minimal medium; not shown: His-tag, C-terminal, kept
